Assay results published in publication doi:10.1101/2021.09.13.460076.
pKd: −log10 of the molar value.

Target: dimeric human ACE2 fused to Fc domain of human IgG (human) (UniProt Q9BYF1)
Test: SPR

dimeric human ACE2 fused to Fc domain of human IgG (human), sequence (Q9BYF1 18-740): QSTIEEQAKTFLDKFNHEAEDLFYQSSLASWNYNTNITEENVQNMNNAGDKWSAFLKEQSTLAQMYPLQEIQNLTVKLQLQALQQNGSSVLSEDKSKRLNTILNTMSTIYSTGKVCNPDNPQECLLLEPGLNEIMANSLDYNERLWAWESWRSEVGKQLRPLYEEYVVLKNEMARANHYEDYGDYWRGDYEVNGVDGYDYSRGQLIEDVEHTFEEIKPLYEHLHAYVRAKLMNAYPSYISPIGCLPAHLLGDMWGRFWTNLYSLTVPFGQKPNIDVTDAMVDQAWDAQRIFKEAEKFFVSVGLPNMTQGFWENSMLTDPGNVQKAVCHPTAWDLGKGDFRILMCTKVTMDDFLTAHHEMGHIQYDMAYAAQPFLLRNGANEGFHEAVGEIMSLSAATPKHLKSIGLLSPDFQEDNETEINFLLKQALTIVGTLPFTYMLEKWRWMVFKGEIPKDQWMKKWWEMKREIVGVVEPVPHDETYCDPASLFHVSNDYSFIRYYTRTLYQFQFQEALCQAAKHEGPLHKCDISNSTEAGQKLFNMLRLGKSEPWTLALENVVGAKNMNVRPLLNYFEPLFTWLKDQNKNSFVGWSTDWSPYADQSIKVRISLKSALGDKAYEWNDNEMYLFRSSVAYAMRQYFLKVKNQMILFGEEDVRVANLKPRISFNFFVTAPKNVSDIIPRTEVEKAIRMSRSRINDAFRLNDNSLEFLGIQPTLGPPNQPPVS

Substance: ADDomer particle decorated with SARS-CoV-2 RBD (ADD-RBD) (from UniProt Q2Y0H9 1-544; P0DTC2 320-554) (complex)
- pKd: 9.51
